One molecule from paper PMC2115308 can be followed below.

For experiment [1], the target named is Arg-Gly-Asp-directed receptors on LiBr melanoma cells (human (endogenous in LiBr)). The experiment is described as follows: radioligand binding.
The target is the same in experiment [2]. In words: radioligand binding. This is another data set of the same source.

Where “and” joins values, the source holds several entries; their conditions need not be identical. Equal entries are not always repeated. Where two headings read alike, the source gives them in different places. No end group written: not given here. *: point of attachment. 125I = [125I]*

B1: iodinated synthetic peptide KYGRGDSP (peptide)
peptide: KY(125I)GRGDSP
As for B1, the specific cpm in experiment [1] was 2660 cpm; in experiment [2], 637 cpm and 494 cpm.
